Drawing on paper PMC5798299, this text covers stoichiometry N for nine substances.

The target of assay [1] is BG505 SOSIP.664-D7324 A316W trimer (unpurified, 293T) (HIV-1 (clade A, BG505)). As to the kind of experiment: native gel or EMSA; BN-PAGE of unpurified Env proteins in 293T culture supernatants, Western blot with bNAb 2G12. For orientation: A gel shift assay detects complexes by their altered migration in electrophoresis.
The target of assay [2] is BG505 SOSIP.664-D7324 R308L trimer (unpurified, 293T) (HIV-1 (clade A, BG505)). Described as above.
In assay [3] the target is BG505 SOSIP.664-D7324 S306L trimer (unpurified, 293T) (HIV-1 (clade A, BG505)). Described as above.
Assay [4] addresses BG505 SOSIP.664-D7324 trimer (PGT145-purified, 293F) (HIV-1 (clade A, BG505)). Briefly: native gel or EMSA; BN-PAGE of PGT145-purified trimers, Coomassie Blue stain.
The target in assay [5] is BG505 SOSIP.664-D7324 trimer (unpurified, 293T) (HIV-1 (clade A, BG505)). As to the kind of experiment: native gel or EMSA; BN-PAGE of unpurified Env proteins in 293T culture supernatants, Western blot with bNAb 2G12.
Assay [6] has as its target BG505 SOSIP.v4.1 S306L/R308L-D7324 trimer (HIV-1 (clade A, BG505)). Briefly: native gel or EMSA; BN-PAGE of PGT145-purified trimers, Coomassie Blue stain.
The target in assay [7] is BG505 SOSIP.v4.1-D7324 trimer (HIV-1 (clade A, BG505)). The description is as above.
Assay [8] deals with BG505 SOSIP.v5.2 S306L/R308L-D7324 trimer (HIV-1 (clade A, BG505)). The description is as above.
For assay [9], the target named is BG505 SOSIP.v5.2-D7324 trimer (HIV-1 (clade A, BG505)). Described as above.

On to “BG505 SOSIP.664-D7324 A316W trimer (unpurified, 293T) (complex)”, for which the stoichiometry N in assay [1] is 3.
The substance “BG505 SOSIP.664-D7324 R308L trimer (unpurified, 293T) (complex)” came in with a stoichiometry N in [2] of 3.
For the substance “BG505 SOSIP.664-D7324 S306L trimer (unpurified, 293T) (complex)”, in [3], the stoichiometry N came to 3.
“BG505 SOSIP.664-D7324 trimer (PGT145-purified, 293F) (complex)” came in with a stoichiometry N in assay [4] of 3.
For the substance “BG505 SOSIP.664-D7324 trimer (unpurified, 293T) (complex)”, in [5], the stoichiometry N worked out at 3.
In assay [6], “BG505 SOSIP.v4.1 S306L/R308L-D7324 trimer (complex)” yielded a stoichiometry N of 3.
In assay [7], BG505 SOSIP.v4.1-D7324 trimer (complex) had a stoichiometry N of 3.
As to “BG505 SOSIP.v5.2 S306L/R308L-D7324 trimer (complex)”, the stoichiometry N in assay [8] came to 3.
As for BG505 SOSIP.v5.2-D7324 trimer (complex), in assay [9], the stoichiometry N was 3.

In general, stoichiometry N refers to a count of units in the complex or per binding partner.
